Reference: patent publication US12012453B2, “Methods for treating late-stage small cell lung cancer by administering a human anti-PD-L1 antibody, an etoposide and a platinum-based therapeutic” (ASTRAZENECA AB, priority 2019, dated 2024)

Assays:
human CTLA-4 = human CTLA-4 (Homo sapiens, UniProt P16410); details: cited from earlier work
[1] = tested on: natural killer (NK) ADCC activity; details: cited from earlier work
Fc receptors = details: cited from earlier work
patients with ES-SCLC [2] = experiment: CASPIAN phase 3 trial: treatment-related adverse events (safety population)
Description: (§2) Patients were randomized in a 1:1:1 ratio to receive durvalumab 1500 mg plus EP, durvalumab 1500 mg plus tremelimumab 75 mg plus EP, or EP (FIG. 1). Across all three study arms, chemotherapy consisted of etoposide 80-100 mg/m^2 (administered on days 1 to 3 of each cycle), with either carboplatin area under the curve 5-6 mg/mL/min or cisplatin 75-80 mg/m^2 (administered on day 1 of each cycle). Randomization was stratified according to planned platinum agent. Patients in the immunotherapy arms received up to 4 cycles of EP plus durvalumab every 3 weeks (q3w) followed by maintenance durvalumab 1500 mg every 4 weeks (q4w). Patients in the EP arm could receive an additional 2 cycles of EP (up to 6 cycles total) and prophylactic cranial irradiation (PCI). Patients continued treatment until Response Evaluation Criteria in Solid Tumor version 1.1 (RECIST v1.1)-defined disease progression, unacceptable toxicity, or other discontinuation criteria were met. Continuation of study treatment following disease progression was permitted if there was evidence of clinical benefit (FIG. 1). In-study crossover from the EP to the immunotherapy plus EP arms was not allowed.
(§3) Tumor imaging was performed every 6 weeks for the first 12 weeks, and every 8 weeks thereafter, until confirmed objective disease progression. Survival was assessed every 2 months following treatment discontinuation.
(§4) All patients who received at least one dose of study treatment were included in safety analyses.

patients with ES-SCLC [3] = details: in vivo
Description: as §2, §3, §4

patients with ES-SCLC [4] = experiment: CASPIAN phase 3 trial: tumor response per RECIST v1.1 (objective response, duration of response); format: in vivo, human; details: for Odds ratio (95% CI) for ORR versus EP: logistic regression adjusted for platinum agent
Description: (§1) Eligible patients included adults with histologically or cytologically documented ES-SCLC and were treatment naïve. […] Patients with brain metastases were eligible provided they were asymptomatic or treated and stable off steroids and anticonvulsants for at least 1 month prior to study entry.
Randomization was stratified according to planned platinum agent. […]
The primary endpoint was OS (time from randomization to death from any cause). […] PFS and ORR were assessed according to RECIST v1.1.

patients with ES-SCLC [5] = experiment: CASPIAN phase 3 trial: overall survival and progression-free survival, intention-to-treat population; format: in vivo, human; details: ITT
Description: as §1
Randomization was stratified according to planned platinum agent.
Survival was assessed every 2 months following treatment discontinuation.
The primary endpoint was OS (time from randomization to death from any cause). Secondary endpoints included progression-free survival (PFS; time from randomization to the date of objective disease progression or death from any cause in the absence of progression), objective response rate (ORR), OS at 18 and 24 months, PFS at 6 and 12 months, and safety. PFS and ORR were assessed according to RECIST v1.1.

[6] = tested on: patients with platinum-refractory disease; details: second-line; cited from earlier work
[7] = tested on: PD-L1-mediated suppression of human T-cell activation; details: in vitro; cited from earlier work
xenograft model = details: cited from earlier work
[8] = final analysis, Kaplan-Meier, listed as D+EP

Sequence of human CTLA-4 (P16410 36-223): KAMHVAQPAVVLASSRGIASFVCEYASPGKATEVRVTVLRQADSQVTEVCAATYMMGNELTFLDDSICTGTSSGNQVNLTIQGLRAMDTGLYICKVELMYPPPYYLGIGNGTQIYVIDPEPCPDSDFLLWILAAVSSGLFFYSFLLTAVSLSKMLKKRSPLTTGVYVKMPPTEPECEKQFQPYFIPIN

Tremelimumab: antibody that selectively binds a CTLA-4 polypeptide, as disclosed in U.S. Pat. No. 8,491,895
cross-reactivity to related human proteins (human CTLA-4): no cross-reactivity to related human proteins
induction of NK ADCC activity [1]: does not induce natural killer (NK) antibody-dependent cell-mediated cytotoxicity (ADCC) activity
specific binding to Fc receptors (Fc receptors): minimal specific binding to Fc receptors

Durvalumab + EP
Alopecia, treatment-related (patients with ES-SCLC [2]; Any grade): 75 (28) n (%)
Anaemia, treatment-related (patients with ES-SCLC [2]; Any grade): 85 (32) n (%)
Any treatment-related event (patients with ES-SCLC [2]; Any grade): 237 (89) n (%)
Any treatment-related event leading to discontinuation (patients with ES-SCLC [2]; Any grade): 16 (6) n (%)
Any treatment-related serious event (patients with ES-SCLC [2]; Any grade): 35 (13) n (%)
Asthenia, treatment-related (patients with ES-SCLC [2]; Any grade): 27 (10) n (%)
Constipation, treatment-related (patients with ES-SCLC [2]; Any grade): 23 (9) n (%)
Decreased appetite, treatment-related (patients with ES-SCLC [2]; Any grade): 33 (12) n (%)
Diarrhoea, treatment-related (patients with ES-SCLC [2]; Any grade): 17 (6) n (%)
Fatigue, treatment-related (patients with ES-SCLC [2]; Any grade): 30 (11) n (%)
Febrile neutropenia, treatment-related (patients with ES-SCLC [2]; Any grade): 15 (6) n (%)
Hyperthyroidism, treatment-related (patients with ES-SCLC [2]; Any grade): 22 (8) n (%)
Hypothyroidism, treatment-related (patients with ES-SCLC [2]; Any grade): 23 (9) n (%)
Leucopenia, treatment-related (patients with ES-SCLC [2]; Any grade): 36 (14) n (%)
Lipase increased, treatment-related (patients with ES-SCLC [2]; Any grade): 10 (4) n (%)
Nausea, treatment-related (patients with ES-SCLC [2]; Any grade): 74 (28) n (%)
Neutropenia, treatment-related (patients with ES-SCLC [2]; Any grade): 104 (39) n (%)
Neutrophil count decreased, treatment-related (patients with ES-SCLC [2]; Any grade): 24 (9) n (%)
Paraesthesia, treatment-related (patients with ES-SCLC [2]; Any grade): 14 (5) n (%)
Platelet count decreased, treatment-related (patients with ES-SCLC [2]; Any grade): 14 (5) n (%)
Pruritus, treatment-related (patients with ES-SCLC [2]; Any grade): 11 (4) n (%)
Rash, treatment-related (patients with ES-SCLC [2]; Any grade): 10 (4) n (%)
Thrombocytopenia, treatment-related (patients with ES-SCLC [2]; Any grade): 37 (14) n (%)
Vomiting, treatment-related (patients with ES-SCLC [2]; Any grade): 32 (12) n (%)
White blood cell count decreased, treatment-related (patients with ES-SCLC [2]; Any grade): 12 (5) n (%)
Alopecia, treatment-related (patients with ES-SCLC [2]; Grade 3 or 4): 3 (1) n (%)
Anaemia, treatment-related (patients with ES-SCLC [2]; Grade 3 or 4): 21 (8) n (%)
Any treatment-related event (patients with ES-SCLC [2]; Grade 3 or 4): 121 (46) n (%)
Any treatment-related event leading to discontinuation (patients with ES-SCLC [2]; Grade 3 or 4): 3 (1) n (%)
Any treatment-related serious event (patients with ES-SCLC [2]; Grade 3 or 4): 25 (9) n (%)
Asthenia, treatment-related (patients with ES-SCLC [2]; Grade 3 or 4): 2 (1) n (%)
Constipation, treatment-related (patients with ES-SCLC [2]; Grade 3 or 4): 0 n (%)
Decreased appetite, treatment-related (patients with ES-SCLC [2]; Grade 3 or 4): 1 (<1) n (%)
Diarrhoea, treatment-related (patients with ES-SCLC [2]; Grade 3 or 4): 2 (1) n (%)
Fatigue, treatment-related (patients with ES-SCLC [2]; Grade 3 or 4): 2 (1) n (%)
Febrile neutropenia, treatment-related (patients with ES-SCLC [2]; Grade 3 or 4): 13 (5) n (%)
Hyperthyroidism, treatment-related (patients with ES-SCLC [2]; Grade 3 or 4): 0 n (%)
Hypothyroidism, treatment-related (patients with ES-SCLC [2]; Grade 3 or 4): 0 n (%)
Leucopenia, treatment-related (patients with ES-SCLC [2]; Grade 3 or 4): 15 (6) n (%)
Lipase increased, treatment-related (patients with ES-SCLC [2]; Grade 3 or 4): 8 (3) n (%)
Nausea, treatment-related (patients with ES-SCLC [2]; Grade 3 or 4): 0 n (%)
Neutropenia, treatment-related (patients with ES-SCLC [2]; Grade 3 or 4): 61 (23) n (%)
Neutrophil count decreased, treatment-related (patients with ES-SCLC [2]; Grade 3 or 4): 16 (6) n (%)
Paraesthesia, treatment-related (patients with ES-SCLC [2]; Grade 3 or 4): 0 n (%)
Platelet count decreased, treatment-related (patients with ES-SCLC [2]; Grade 3 or 4): 4 (2) n (%)
Pruritus, treatment-related (patients with ES-SCLC [2]; Grade 3 or 4): 0 n (%)
Rash, treatment-related (patients with ES-SCLC [2]; Grade 3 or 4): 0 n (%)
Thrombocytopenia, treatment-related (patients with ES-SCLC [2]; Grade 3 or 4): 14 (5) n (%)
Vomiting, treatment-related (patients with ES-SCLC [2]; Grade 3 or 4): 0 n (%)
White blood cell count decreased, treatment-related (patients with ES-SCLC [2]; Grade 3 or 4): 4 (2) n (%)
Any treatment-related event leading to death (patients with ES-SCLC [3]): 6 (2) n (%)
Best objective response: Complete response (patients with ES-SCLC [4]; final analysis): 7 (3) n (%)
Best objective response: Not evaluable (patients with ES-SCLC [4]; final analysis): 3 (1) n (%)
Best objective response: Partial response (patients with ES-SCLC [4]; final analysis): 175 (65) n (%)
Best objective response: Progressive disease (patients with ES-SCLC [4]; final analysis): 32 (12) n (%)
Best objective response: Stable disease for at least 6 weeks (patients with ES-SCLC [4]; final analysis): 20 (7) n (%)
Best objective response: Unconfirmed response (patients with ES-SCLC [4]; final analysis): 31 (12) n (%)
Best reduction from baseline in target lesion size, Mean (SD) (patients with ES-SCLC [4]; final analysis): −57.0 (24.59) %
Best reduction from baseline in target lesion size, Median (IQR) (patients with ES-SCLC [4]; final analysis): −60.4 (−72.9, −44.3) %
Odds ratio vs EP (95% CI), confirmed objective response (patients with ES-SCLC [4]; final analysis): 1.53 (1.08-2.18)
Odds ratio vs EP (95% CI), unconfirmed objective response (patients with ES-SCLC [4]; final analysis): 1.61 (1.09-2.40)
Remaining in response at 6 months (95% CI) (patients with ES-SCLC [4]; final analysis, Kaplan-Meier): 39.3 (32.2-46.3) %
Remaining in response at 12 months (95% CI) (patients with ES-SCLC [4]; final analysis, Kaplan-Meier): 23.2 (17.3-29.7) %
Remaining in response at 24 months (95% CI) (patients with ES-SCLC [4]; final analysis, Kaplan-Meier): 13.5 (8.7-19.3) %
Remaining in response at 12 months (95% CI) (patients with ES-SCLC [4]; [8]): 23.2%
Remaining in response at 24 months (95% CI) (patients with ES-SCLC [4]; [8]): 13.5%
Median (95% CI) duration of response (patients with ES-SCLC [4]; final analysis, confirmed responders, Kaplan-Meier): 5.1 (4.9-5.3) months
Best reduction from baseline in target lesion size, Median (IQR) (patients with ES-SCLC [4]; final analysis, listed as D+EP): −60.4%
Odds ratio vs EP (95% CI), confirmed objective response (patients with ES-SCLC [4]; final analysis, listed as D+EP): 1.53
confirmed objective response (patients with ES-SCLC [4]; final analysis, post hoc): 68%
Best objective response: Not evaluable (patients with ES-SCLC [4]; interim analysis): 3 (1.1) n (%)
Best objective response: Progressive disease (patients with ES-SCLC [4]; interim analysis): 32 (11.9) n (%)
Best objective response: Stable disease ≥6 weeks (patients with ES-SCLC [4]; interim analysis): 20 (7.5) n (%)
Remaining in response at 6 months (patients with ES-SCLC [4]; interim analysis): 39.3%
Remaining in response at 12 months (patients with ES-SCLC [4]; interim analysis): 22.7%
confirmed ORR (patients with ES-SCLC [4]; interim analysis): 67.9%
confirmed complete response (patients with ES-SCLC [4]; interim analysis): 2.2%
ORR (confirmed) (patients with ES-SCLC [4]; interim analysis, RECIST v1.1): 182 (67.9) n (%)
Best objective response: Complete response (patients with ES-SCLC [4]; interim analysis, confirmed): 6 (2.2) n (%)
Best objective response: Partial response (patients with ES-SCLC [4]; interim analysis, confirmed): 176 (65.7) n (%)
Median DoR (95% CI) (patients with ES-SCLC [4]; interim analysis, confirmed responders): 5.1 (4.9-5.3) months
Median DoR (95% CI) (patients with ES-SCLC [4]; interim analysis, confirmed responders, listed as durvalumab plus EP): 5.1 months
Odds ratio (95% CI) for ORR versus EP (patients with ES-SCLC [4]; interim analysis): 1.56 (1.095-2.218)
Odds ratio (95% CI) for ORR versus EP (patients with ES-SCLC [4]; interim analysis, listed as durvalumab plus EP): 1.56
unconfirmed and confirmed objective response rates, amount higher versus EP (patients with ES-SCLC [4]; updated analysis): approximately 10%
patients who had died (patients with ES-SCLC [5]; final analysis data cutoff): 78%
patients who had disease progression or died (patients with ES-SCLC [5]; final data cutoff): 87%
12-month PFS rate (patients with ES-SCLC [5]; final/updated analysis): 17.9%
24-month PFS rate (patients with ES-SCLC [5]; final/updated analysis): 11.0%
HR for PFS versus EP (patients with ES-SCLC [5]; final/updated analysis): 0.80
Median OS (patients with ES-SCLC [5]; final/updated analysis): 12.9 months
Median PFS (patients with ES-SCLC [5]; final/updated analysis): 5.1 months
HR for OS versus EP (patients with ES-SCLC [5]; final/updated analysis, Cox model stratified by platinum agent): 0.75
24-month OS rate (patients with ES-SCLC [5]; final/updated analysis, Kaplan-Meier): 22.2%

CC[C@@]1(O)C(=O)OCc2c1cc1n(c2=O)Cc2cc3c(CN(C)C)c(O)ccc3nc2-1 [topotecan]
one-year survival rate [6]: 9%
response rates [6]: 5%

B1: Durvalumab: human IgG1 monoclonal antibody that selectively binds PD-L1 and blocks binding to PD-1 and CD80; VL SEQ ID NO: 1, VH SEQ ID NO: 2 (antibody, V domains shown)
VH: EVQLVESGGGLVQPGGSLRLSCAASGFTFSRYWMSWVRQAPGKGLEWVANIKQDGSEKYYVDSVKGRFTISRDNAKNSLYLQMNSLRAEDTAVYYCAREGGWFGELAFDYWGQGTLVTVSS
VL: EIVLTQSPGTLSLSPGERATLSCRASQRVSSSYLAWYQQKPGQAPRLLIYDASSRATGIPDRFSGSGSGTDFTLTISRLEPEDFAVYYCQQYGSLPWTFGQGTKVEIK
relief of PD-L1-mediated suppression of human T-cell activation [7]: can relieve PD-L1-mediated suppression of human T-cell activation in vitro
tumor growth inhibition (xenograft model): inhibits tumor growth in a xenograft model via a T-cell dependent mechanism
